Data as given in patent US20230303636A1 (UNIVERSITY COURT OF THE UNIVERSITY OF GLASGOW, published 2023).

T1: pyocin AP41 (Pseudomonas aeruginosa (gene amplified …))
T1 chain: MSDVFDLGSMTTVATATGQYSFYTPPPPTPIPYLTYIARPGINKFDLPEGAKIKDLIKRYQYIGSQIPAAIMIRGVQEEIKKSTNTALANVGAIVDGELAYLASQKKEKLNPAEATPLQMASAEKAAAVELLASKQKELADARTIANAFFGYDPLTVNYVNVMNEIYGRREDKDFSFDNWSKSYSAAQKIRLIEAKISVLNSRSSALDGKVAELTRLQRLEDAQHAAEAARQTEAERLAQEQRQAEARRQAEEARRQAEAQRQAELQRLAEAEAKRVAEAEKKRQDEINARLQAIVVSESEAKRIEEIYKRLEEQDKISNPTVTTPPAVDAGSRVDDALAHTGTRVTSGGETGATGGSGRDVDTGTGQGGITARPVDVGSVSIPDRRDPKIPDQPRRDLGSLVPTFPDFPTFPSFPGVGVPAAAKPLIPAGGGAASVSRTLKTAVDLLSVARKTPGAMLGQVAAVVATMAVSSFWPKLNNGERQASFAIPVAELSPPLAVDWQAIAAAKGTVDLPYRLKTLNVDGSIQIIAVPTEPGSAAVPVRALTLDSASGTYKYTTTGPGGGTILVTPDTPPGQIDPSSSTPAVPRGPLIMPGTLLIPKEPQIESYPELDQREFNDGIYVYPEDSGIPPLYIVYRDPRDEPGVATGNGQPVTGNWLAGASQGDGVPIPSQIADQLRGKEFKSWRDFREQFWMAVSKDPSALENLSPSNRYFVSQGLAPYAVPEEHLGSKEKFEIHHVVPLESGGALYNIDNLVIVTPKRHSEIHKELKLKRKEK

B1: pyocin AP41 immunity protein with C-terminal His6-tag (other)
chain: MDIKNNLSDYTESEFLEIIEEFFKNKSGLKGSELEKRMDKLVKHFEEVTSHPRKSGVIFHPKPGFETPEGIVKEVKEWRAANGLPGFKAG
notes: It is not explicitly tied to the C763 construct; also called ImAP41; not shown: C-terminal His6-tag from pET21a (XhoI site in place of the stop codon)
B2: pyocin S2 immunity protein (other)
chain: MKSKISEYTEKEFLEFVKDIYTNNKKKFPTEESHIQAVLEFKKLTEHPSGSDLLYYPNENREDSPAGVVKEVKEWRASKGLPGFKAG
notes: also called ImS2

Experiments:
[1] = molecular target: T1, pyocin AP41; assay: co-expression in E. coli; complex purified on a His Trap column and by gel filtration
[2] = molecular target: pyocin S2 (Pseudomonas aeruginosa, UniProt Q06584 1-689); assay: purification of the complex, method only by reference
Chain of pyocin S2 (Q06584 whole entry): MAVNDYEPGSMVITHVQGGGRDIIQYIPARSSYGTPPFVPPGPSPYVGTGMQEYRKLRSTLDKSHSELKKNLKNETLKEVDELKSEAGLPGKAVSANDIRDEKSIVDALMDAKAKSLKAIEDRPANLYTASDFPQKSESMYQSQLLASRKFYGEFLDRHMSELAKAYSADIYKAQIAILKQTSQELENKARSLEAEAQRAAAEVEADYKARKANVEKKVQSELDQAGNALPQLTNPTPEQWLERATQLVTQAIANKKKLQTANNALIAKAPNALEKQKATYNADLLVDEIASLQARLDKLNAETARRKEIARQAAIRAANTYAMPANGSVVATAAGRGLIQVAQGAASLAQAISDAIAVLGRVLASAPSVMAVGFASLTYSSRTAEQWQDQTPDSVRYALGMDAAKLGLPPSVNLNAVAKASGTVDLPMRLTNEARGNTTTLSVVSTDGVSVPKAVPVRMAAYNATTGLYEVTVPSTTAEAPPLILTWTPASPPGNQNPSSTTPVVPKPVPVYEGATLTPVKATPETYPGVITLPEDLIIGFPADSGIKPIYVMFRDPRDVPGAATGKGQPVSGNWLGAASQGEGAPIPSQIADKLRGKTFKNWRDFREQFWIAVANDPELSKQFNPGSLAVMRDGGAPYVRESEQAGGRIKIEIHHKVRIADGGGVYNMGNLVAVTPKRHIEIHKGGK

| Binder | binding result [1] | binding result [2] |
| --- | --- | --- |
| B1 | binds | – |
| B2 | – | binds |
